PMC8617236

Biological target: chicken LPCAT3 (cLPCAT3), Twin-Strep tag removed, purified in LMNG/GDN (Gallus gallus)
Experiment: cryo-EM structure; cLPCAT3 extracted with LMNG, dimer fractions from SEC in GDN; with 0.2 mM arachidonoyl CoA (3.49 Å) or 0.5 mM 12:0-LPC (3.57 Å); C2 symmetry

stoichiometry N: 2
Substance: chicken LPCAT3 (cLPCAT3), Twin-Strep tag removed, purified in LMNG/GDN (enzyme)
